Assays:
[1] = target: T1, Ara h 2 peptide DSYERDPYSPSQDPY; assay: Luminex peptide array
T1 construct: peptide of the Luminex peptide array
T1 peptide: DSYERDPYSPSQDPY
Excerpt: (§1) Peptide microarray. The inventor used peptide arrays to help determine the approximate locations of the antigenic sites targeted by his human IgE mAbs. In collaboration with Dr. Hugh Sampson at Mount Sinai he tested Ara h 2-specific IgE mAbs using a Luminex peptide array technology (Shreffler et al., 2004). […] Several of the Ara h 2 site CR-A-specific IgE mAbs, however, bound strongly to peptide […] at the C-terminus of the allergen protein. Ara h 2 site SP-B-specific antibody 38B7, which competes with all Ara h 2 site CR-B antibodies, bound to two peptides […] and […]. […] In that paper the authors used the fusion protein to define an immunodominant population of IgE antibodies in the sera of peanut allergic subjects, which is the population the inventor defines here as site CR-B, the immunodominant antigenic site of Ara h 2. This region has also been described previously as being an immunodominant target of the Ara h 2 and Ara h 6 IgE antibody response seen in human sera (Chen et al., 2016). These peptides make up the disordered loop between helices 2 and 3 of Ara h 2, the region that differs between Ara h 2.01 and Ara h 2.02 isoforms, not present in the crystal structure due to its high degree of flexibility. […]

[2] = target: T2, Ara h 2 peptide PYSPSQDPYSPSPYD; assay: Luminex peptide array
T2 construct: peptide of the Luminex peptide array
T2 peptide: PYSPSQDPYSPSPYD
Excerpt: as §1

[3] = target: T3, peanut allergen Ara h 3 (peanut (Arachis hypogaea)); assay: ImmunoCAP, hybridoma supernatant
T3 construct: also called F424
Description: (§2) Verification and validation of IgE mAbs peanut allergen specificity. Following the unbiased generation of IgE secreting human hybridomas from peanut allergic subject PBMCs, peanut protein binding and peanut allergen protein specificity was determined. Hybridoma culture supernatant was initially used for this validation. […] Using the available ImmunoCAP components (purified allergen proteins: Ara h 1, F422; Ara h 2, F423; Ara h 3, F424; Ara h 8 F352; Ara h 9 F427), the exact allergen specificity was determined for those which bound Ara h 1, 2, and 3.
(§3) Hybridoma cell culture supernatant was used for initial identification of allergen specificity using ImmunoCAP analysis. Peanut reactivity was first determined using peanut ImmunoCAP. Component analysis identified IgE antibodies specific for Ara h 1, 2, and 3. All antibodies not identified in this table were determined to bind Ara h 6.

[4] = target: T4, peanut allergen Ara h 9 (peanut (Arachis hypogaea)); assay: ImmunoCAP, hybridoma supernatant
T4 construct: ImmunoCAP component F427; also called F427
Description: as §2, §3

[5] = target: T5, peanut allergen Ara h 8 (peanut (Arachis hypogaea)); assay: ImmunoCAP, hybridoma supernatant
T5 construct: ImmunoCAP component F352; also called F352
Description: as §2, §3

binding result [1]: binds
binding result [2]: binds
ImmunoCAP kUA/L [3]: 0.23 kUA/L
ImmunoCAP kUA/L [4]: 0.11 kUA/L
ImmunoCAP kUA/L [5]: 0.15 kUA/L
B1: human IgE mAb 38B7 (antibody, V domains shown)
VH: QVQLVESGGGVVQPGRSLRLSCVGSGFTFRRDAKYWVRQAPGKGLEWVAAISHDGGEEDYAESVKGRFTISRDNSRETVYLEMNSLRPEDTAVYYCATTRSGWYFDYWGQGALVTVSS
VL: EIVLTQSPATLSLSPGARATLSCRASQSVDTYLAWYQQRRGQSPRLLIYDASKRATGIPARFSGSGSGTDFTLTISSLEPEDFAVYYCQQRNNWRTWTFGQGTKVEIN
notes: human IgE from hybridoma

— patent publication US20240254209A1 (published 2024)
